# Measurements as given in patent US20160002331A1 (Pfizer, published 2016).
# Values joined by “and” are separate entries in the source; they are usually repeats but may differ in a detail not shown here. Equal values may be shown once.
# B1: humanized 351 VH1.0/VL1.1 (antibody, human IgG1, kappa, V domains shown)
# VH: EVQLVESGGGLVQPGGSLRLSCAASGFTFSHYGMNWVRQAPGKGLEWVASISRSGSYIRYVDTVKGRFTISRDNAKNSLYLQMNSLRAEDTAVYYCAREGQFGDYFEYWGQGTLVTVSS
# VL: DIQMTQSPSSLSASVGDRVTITCRASQKISTNLHWYQQKPGKAPKILIKYASQTISGVPSRFSGSGSGTDFTLTISSLQPEDFATYYCQQTNSWPLTFGGGTKVEIKR
# notes: full chains (VH1.0)-hIgG1-3M and (VL1.1)-hkappa
# B2: parental rat 351 (antibody, V domains shown)
# VH: EVQLVESGGGLVQPGRSLKVSCLASGFTFSHYGMNWIRQAPGKGLDWVASISRSGSYIRYVDTVKGRFTVSRDIAKNTLYLQMTSLRSEDTALYYCAREGQFGDYFEYWGQGVMVTVSS
# VL: DIMLTQSPATLSVTPGERISLSCRASQKISTNLHWYQQKPNESPRILIKYASQTISGIPSRFSGSGSGTDFTLHINTVEPEDFSVYYCQQTNSWPLTFGSGTKLEIK
# notes: Rat monoclonal IgG from a hybridoma
# B3: rat 438-mIgG1 (antibody, V domains shown)
# VH: AVQLVESGGGLVQPGRSLKLSCTASGFTFSSFAMAWVRQAPTKGLEWVASISYGGADTYYRDSVKGRFTISRDNAKSSLYLQMDSLRSEDTSTYYCAKDLPYYGYTPFVMDAWGQGTSVTVSS
# VL: DIMLTQSPPTLSVTPGETISLSCRASQRINTDLHWYQQKPNESPRVLIKFASQTISGVPSRFSGSGSGTDFTLNINRVEPEDFSVYYCQQSNSWPYTFGAGTKLELK
# notes: also called r438-mIgG; Rat438-mlgG
# Tests used:
# [1] = biological target: T1, Human Notch3 NRR-Fc (human, UniProt Q9UM47 1378-1643, limits assumed); experiment: binding to recombinant NRR-Fc fusion protein (N/B represents non-binding)
# T1 construct: domain: NRR region; also called human Notch3 NRR-Fc fusion protein; not shown: human IgG1 Fc fragment
# T1 sequence (looked up): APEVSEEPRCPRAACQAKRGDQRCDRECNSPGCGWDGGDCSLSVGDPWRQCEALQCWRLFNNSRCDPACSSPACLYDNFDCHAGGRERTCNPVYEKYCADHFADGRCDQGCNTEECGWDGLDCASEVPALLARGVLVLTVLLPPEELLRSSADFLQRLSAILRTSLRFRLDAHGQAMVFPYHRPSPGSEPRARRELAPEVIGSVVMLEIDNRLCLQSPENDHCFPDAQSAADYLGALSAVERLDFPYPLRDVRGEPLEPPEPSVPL
# [2] = biological target: T2, Human Notch2 NRR-Fc (human, UniProt Q04721 1425-1677, limits assumed); experiment: as above
# T2 construct: domain: NRR region; Made in CHO-PACE cells; also called human Notch2 NRR-Fc fusion protein; not shown: human IgG1 Fc fragment
# T2 sequence (looked up): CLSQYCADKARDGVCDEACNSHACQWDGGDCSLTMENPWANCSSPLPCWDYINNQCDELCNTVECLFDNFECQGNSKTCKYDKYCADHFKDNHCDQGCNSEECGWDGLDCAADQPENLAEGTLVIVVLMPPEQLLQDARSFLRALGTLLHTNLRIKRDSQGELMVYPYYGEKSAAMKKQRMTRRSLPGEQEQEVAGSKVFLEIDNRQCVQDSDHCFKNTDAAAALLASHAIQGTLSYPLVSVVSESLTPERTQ
# [3] = biological target: T3, Mouse Notch3 NRR-Fc (mouse, UniProt Q61982 1379-1643, limits assumed); experiment: as above
# T3 construct: domain: NRR region; also called mouse Notch3 NRR-Fc fusion protein; not shown: Fc part
# T3 sequence (looked up): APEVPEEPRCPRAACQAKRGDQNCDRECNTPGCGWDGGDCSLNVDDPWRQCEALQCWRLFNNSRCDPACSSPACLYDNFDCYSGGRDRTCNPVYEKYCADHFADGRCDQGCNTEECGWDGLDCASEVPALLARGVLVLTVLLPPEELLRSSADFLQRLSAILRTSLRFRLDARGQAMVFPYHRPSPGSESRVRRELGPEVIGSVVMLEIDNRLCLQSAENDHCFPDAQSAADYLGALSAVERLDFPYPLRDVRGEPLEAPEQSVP
# [4] = biological target: T4, full-length human Notch1 expressed on the cell surface (human, UniProt P46531 19-2555); experiment: cell-based or functional assay
# [5] = biological target: T5, human Notch1 NRR_Avi_His recombinant protein (human, UniProt P46531 1434-1737); experiment: SPR (Biacore T100), ratio of KD to that of rat 351
# T5 construct: Secreted from CHO-PACE cells; cleaved at S1 into an N-terminal ~26 kDa half (LNR-A, B, C, HD1) and a C-terminal ~12 kDa half (HD2 and tag) that stay associated non-covalently; written here as one chain; also called recombinant human Notch1 NRR; human Notch1 NRR immunogen
# T5 sequence: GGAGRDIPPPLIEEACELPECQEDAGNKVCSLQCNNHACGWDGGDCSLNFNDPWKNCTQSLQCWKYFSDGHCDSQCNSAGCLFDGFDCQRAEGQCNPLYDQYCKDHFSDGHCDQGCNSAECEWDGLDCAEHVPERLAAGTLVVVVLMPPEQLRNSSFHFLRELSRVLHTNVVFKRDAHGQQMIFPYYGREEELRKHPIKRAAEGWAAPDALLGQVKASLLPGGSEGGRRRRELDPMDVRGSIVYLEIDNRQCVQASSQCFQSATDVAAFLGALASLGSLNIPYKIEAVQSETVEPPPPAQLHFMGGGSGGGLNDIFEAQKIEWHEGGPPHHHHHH
# [6] = biological target: T4, full-length human Notch1 expressed on …; experiment: cell-based or functional assay; remark: listed apart in the source
# [7] = biological target: T6, full-length mouse Notch1 expressed on the cell surface of U-2 OS cells (mouse, UniProt Q01705 19-2531); experiment: cell-based or functional assay
# [8] = biological target: T4, full-length human Notch1 expressed on …; experiment: cell-based ELISA, U-2 OS cells expressing full-length human Notch1
# Method: (§1) Supernatants from clones displaying positive binding to immunogens in recombinant Notch1 NRR based ELISAs described above were then screened for cell surface Notch1 binding in a cell-based ELISA. U-2 OS cells stably overexpressing human or mouse full length Notch1 protein on cell surface were plated at 50,000 cells/well in 96 well plates (white opaque, BD/VWR) the day before ELISA assay. On the day of the ELISA, culture media were removed from wells and serially diluted (1:3 in blocking buffer) antibody solutions or hybridoma culture supernatants were applied to the plate. Plates were incubated at room temperature for 2 hours before being washed with PBS-Mg/Ca. HRP-conjugated secondary antibody was then applied and incubated with cells for 1 hour as described above for recombinant protein ELISA. Plates were washed with PBS-Mg/Ca before being developed with Pico-Chemiluminescent developing kit (Thermal Scientific), and chemiluminescence measurements were performed per manufacturer's instructions. Data plotting and analyses were performed with Microsoft Excel and Graphpad-Prizm software.
# [9] = biological target: T4, full-length human Notch1 expressed on …; experiment: competition ELISA on U-2 OS cells expressing full-length human Notch1; competitor 0.8 nM biotinylated rat 351
# Method: (§2) In a similar manner as described for recombinant protein or cell based ELISAs, 96 well cell culture plates were either coated with Notch1 NRR-Avi_His protein (hi-bound co-Star plates), or seeded with full length Notch1 expressing U-2 OS cells (cell culture plate, Co-star), respectively.
# (§3) After incubation for 2 hours, the plates were washed, as described above, and HRP-conjugated streptavidin (Southern Biotech) diluted 1:5000 in blocking buffer was applied. Incubation with streptavidin was allowed for 30 min before the plates were washed again and developed with TMB solution for 10 minutes. Developing reaction was stopped by adding 0.18M H₂SO₄ and absorbance at 450 nm was measured. Data plotting and analyses were performed with Microsoft Excel and Graphpad-Prizm software.
# [10] = biological target: T5, human Notch1 NRR_Avi_His recombinant …; experiment: SPR (Biacore T100), antibody captured by anti-human IgG-Fc, NRR_Avi_His as analyte, 1:1 Langmuir model
# Method: The kinetic constants of the anti-Notch1 NRR interactions were determined by surface plasmon resonance (Biacore® T100, Biacore Inc., Piscataway, N.J.). Flow cells of a CM5 chip were immobilized with approximately 10,000 Resonance Unit (RU) of anti-human IgG-Fc (Biacore®) in 10 mM Glycine, pH 5.0 at 10 μl/min for 600 seconds. […] Association of four concentrations of human Notch1 NRR_Avi_His recombinant protein (from 3.7-100 nM) and a zero concentration (running buffer) at 100 μl/min were recorded for 3 minutes in TBS with 1 mM CaCl₂. Dissociation of the complexes was measured for 10 minutes. The surface of the chip was regenerated by injecting 3M MgCl₂ with 3 mM EGTA for 60 seconds at 10 μl/min. Curves obtained after subtraction of the reference and buffer signals were fitted to a 1:1 Langmuir binding model with Biacore® T100 Evaluation Software (Biacore®).
# [11] = biological target: T4, full-length human Notch1 expressed on …; experiment: cell-based or functional assay; remark: listed apart in the source
# [12] = biological target: T6, full-length mouse Notch1 expressed on …; experiment: cell-based ELISA, U-2 OS cells expressing full-length mouse Notch1
# Method: as §1
# [13] = biological target: T5, human Notch1 NRR_Avi_His recombinant …; experiment: competition ELISA on coated human Notch1 NRR_Avi_His; competitor 0.8 nM biotinylated rat 438
# Method: as §2, §3
# [14] = biological target: T4, full-length human Notch1 expressed on …; experiment: competition ELISA on U-2 OS cells expressing full-length human Notch1; competitor 0.8 nM biotinylated rat 438
# Method: as §2, §3
# [15] = biological target: T4, full-length human Notch1 expressed on …; experiment: cell-based or functional assay; remark: listed apart in the source
# [16] = biological target: T6, full-length mouse Notch1 expressed on …; experiment: cell-based or functional assay; remark: listed apart in the source
# [17] = biological target: T4, full-length human Notch1 expressed on …; experiment: cell-based or functional assay; remark: listed apart in the source
# [18] = biological target: T7, full-length human Notch3 expressed on U-2 OS cell surface (human, UniProt Q9UM47 40-2321); experiment: binding to Notch3 U-2 OS cells (N/B represents non-binding)
# T7 construct: whole, on cells; also called Notch3 U2-OS cells; NotchS U-2 OS cells
# T6 sequence (Q01705 19-2531): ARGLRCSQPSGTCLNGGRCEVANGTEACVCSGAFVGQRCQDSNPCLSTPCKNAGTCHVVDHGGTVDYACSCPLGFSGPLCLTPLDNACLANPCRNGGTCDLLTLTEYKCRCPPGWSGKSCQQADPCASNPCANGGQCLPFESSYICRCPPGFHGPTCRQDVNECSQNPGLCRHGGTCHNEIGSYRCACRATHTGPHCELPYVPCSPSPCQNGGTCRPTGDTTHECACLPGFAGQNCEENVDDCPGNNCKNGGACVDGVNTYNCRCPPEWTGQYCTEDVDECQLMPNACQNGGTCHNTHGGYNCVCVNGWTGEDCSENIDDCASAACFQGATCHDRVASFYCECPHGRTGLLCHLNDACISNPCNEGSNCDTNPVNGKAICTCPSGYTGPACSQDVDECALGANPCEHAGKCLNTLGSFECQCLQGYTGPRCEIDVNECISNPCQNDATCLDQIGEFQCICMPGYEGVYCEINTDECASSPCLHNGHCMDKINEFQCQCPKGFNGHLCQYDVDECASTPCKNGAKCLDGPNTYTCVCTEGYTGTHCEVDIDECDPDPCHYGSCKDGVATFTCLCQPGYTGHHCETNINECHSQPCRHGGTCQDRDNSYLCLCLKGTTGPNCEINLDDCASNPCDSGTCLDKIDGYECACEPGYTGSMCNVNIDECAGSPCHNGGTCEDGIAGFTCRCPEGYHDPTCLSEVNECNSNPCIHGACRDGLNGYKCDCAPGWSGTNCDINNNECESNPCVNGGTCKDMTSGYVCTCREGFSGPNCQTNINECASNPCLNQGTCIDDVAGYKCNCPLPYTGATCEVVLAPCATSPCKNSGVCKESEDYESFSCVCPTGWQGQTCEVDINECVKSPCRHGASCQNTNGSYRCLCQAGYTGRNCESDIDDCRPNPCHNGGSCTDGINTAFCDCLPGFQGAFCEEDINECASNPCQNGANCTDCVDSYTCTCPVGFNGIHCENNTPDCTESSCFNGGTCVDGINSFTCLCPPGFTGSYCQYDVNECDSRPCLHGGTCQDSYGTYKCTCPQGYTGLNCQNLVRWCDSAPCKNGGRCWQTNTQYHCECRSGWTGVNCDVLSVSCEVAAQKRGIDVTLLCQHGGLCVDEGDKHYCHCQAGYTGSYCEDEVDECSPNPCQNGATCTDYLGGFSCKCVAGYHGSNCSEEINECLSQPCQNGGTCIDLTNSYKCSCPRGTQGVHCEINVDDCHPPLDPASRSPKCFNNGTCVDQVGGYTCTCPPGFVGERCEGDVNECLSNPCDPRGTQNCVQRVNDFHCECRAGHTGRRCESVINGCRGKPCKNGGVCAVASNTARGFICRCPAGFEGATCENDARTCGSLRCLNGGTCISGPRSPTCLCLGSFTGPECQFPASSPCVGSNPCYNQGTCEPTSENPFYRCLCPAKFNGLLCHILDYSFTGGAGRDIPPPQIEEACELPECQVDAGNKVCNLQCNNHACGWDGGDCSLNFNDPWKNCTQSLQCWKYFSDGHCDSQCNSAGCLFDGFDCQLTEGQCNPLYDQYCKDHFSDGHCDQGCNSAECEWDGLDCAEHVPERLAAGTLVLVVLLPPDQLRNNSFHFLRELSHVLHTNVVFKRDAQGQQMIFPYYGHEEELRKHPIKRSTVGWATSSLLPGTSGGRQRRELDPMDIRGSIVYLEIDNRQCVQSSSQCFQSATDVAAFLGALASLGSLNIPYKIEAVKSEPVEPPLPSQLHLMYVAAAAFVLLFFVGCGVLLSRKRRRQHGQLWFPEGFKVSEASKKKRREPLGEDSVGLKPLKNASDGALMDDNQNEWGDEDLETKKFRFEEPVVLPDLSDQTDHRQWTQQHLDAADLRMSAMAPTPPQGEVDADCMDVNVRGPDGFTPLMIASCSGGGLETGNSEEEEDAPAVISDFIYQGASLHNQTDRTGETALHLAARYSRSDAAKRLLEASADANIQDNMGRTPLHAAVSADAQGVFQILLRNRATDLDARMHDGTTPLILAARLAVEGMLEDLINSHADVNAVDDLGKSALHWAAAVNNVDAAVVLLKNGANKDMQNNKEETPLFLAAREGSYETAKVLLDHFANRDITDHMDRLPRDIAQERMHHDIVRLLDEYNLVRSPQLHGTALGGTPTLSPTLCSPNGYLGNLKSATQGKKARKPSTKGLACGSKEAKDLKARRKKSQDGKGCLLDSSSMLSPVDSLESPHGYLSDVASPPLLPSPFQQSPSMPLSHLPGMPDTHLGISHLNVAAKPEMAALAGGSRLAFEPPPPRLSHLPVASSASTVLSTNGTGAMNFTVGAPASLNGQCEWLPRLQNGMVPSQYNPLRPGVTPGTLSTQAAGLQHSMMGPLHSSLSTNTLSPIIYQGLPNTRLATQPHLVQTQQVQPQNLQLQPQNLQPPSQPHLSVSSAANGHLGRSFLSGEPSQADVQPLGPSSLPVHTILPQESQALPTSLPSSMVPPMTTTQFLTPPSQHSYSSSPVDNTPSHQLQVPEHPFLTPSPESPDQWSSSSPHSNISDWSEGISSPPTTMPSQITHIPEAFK
# T4 sequence (P46531 19-2555): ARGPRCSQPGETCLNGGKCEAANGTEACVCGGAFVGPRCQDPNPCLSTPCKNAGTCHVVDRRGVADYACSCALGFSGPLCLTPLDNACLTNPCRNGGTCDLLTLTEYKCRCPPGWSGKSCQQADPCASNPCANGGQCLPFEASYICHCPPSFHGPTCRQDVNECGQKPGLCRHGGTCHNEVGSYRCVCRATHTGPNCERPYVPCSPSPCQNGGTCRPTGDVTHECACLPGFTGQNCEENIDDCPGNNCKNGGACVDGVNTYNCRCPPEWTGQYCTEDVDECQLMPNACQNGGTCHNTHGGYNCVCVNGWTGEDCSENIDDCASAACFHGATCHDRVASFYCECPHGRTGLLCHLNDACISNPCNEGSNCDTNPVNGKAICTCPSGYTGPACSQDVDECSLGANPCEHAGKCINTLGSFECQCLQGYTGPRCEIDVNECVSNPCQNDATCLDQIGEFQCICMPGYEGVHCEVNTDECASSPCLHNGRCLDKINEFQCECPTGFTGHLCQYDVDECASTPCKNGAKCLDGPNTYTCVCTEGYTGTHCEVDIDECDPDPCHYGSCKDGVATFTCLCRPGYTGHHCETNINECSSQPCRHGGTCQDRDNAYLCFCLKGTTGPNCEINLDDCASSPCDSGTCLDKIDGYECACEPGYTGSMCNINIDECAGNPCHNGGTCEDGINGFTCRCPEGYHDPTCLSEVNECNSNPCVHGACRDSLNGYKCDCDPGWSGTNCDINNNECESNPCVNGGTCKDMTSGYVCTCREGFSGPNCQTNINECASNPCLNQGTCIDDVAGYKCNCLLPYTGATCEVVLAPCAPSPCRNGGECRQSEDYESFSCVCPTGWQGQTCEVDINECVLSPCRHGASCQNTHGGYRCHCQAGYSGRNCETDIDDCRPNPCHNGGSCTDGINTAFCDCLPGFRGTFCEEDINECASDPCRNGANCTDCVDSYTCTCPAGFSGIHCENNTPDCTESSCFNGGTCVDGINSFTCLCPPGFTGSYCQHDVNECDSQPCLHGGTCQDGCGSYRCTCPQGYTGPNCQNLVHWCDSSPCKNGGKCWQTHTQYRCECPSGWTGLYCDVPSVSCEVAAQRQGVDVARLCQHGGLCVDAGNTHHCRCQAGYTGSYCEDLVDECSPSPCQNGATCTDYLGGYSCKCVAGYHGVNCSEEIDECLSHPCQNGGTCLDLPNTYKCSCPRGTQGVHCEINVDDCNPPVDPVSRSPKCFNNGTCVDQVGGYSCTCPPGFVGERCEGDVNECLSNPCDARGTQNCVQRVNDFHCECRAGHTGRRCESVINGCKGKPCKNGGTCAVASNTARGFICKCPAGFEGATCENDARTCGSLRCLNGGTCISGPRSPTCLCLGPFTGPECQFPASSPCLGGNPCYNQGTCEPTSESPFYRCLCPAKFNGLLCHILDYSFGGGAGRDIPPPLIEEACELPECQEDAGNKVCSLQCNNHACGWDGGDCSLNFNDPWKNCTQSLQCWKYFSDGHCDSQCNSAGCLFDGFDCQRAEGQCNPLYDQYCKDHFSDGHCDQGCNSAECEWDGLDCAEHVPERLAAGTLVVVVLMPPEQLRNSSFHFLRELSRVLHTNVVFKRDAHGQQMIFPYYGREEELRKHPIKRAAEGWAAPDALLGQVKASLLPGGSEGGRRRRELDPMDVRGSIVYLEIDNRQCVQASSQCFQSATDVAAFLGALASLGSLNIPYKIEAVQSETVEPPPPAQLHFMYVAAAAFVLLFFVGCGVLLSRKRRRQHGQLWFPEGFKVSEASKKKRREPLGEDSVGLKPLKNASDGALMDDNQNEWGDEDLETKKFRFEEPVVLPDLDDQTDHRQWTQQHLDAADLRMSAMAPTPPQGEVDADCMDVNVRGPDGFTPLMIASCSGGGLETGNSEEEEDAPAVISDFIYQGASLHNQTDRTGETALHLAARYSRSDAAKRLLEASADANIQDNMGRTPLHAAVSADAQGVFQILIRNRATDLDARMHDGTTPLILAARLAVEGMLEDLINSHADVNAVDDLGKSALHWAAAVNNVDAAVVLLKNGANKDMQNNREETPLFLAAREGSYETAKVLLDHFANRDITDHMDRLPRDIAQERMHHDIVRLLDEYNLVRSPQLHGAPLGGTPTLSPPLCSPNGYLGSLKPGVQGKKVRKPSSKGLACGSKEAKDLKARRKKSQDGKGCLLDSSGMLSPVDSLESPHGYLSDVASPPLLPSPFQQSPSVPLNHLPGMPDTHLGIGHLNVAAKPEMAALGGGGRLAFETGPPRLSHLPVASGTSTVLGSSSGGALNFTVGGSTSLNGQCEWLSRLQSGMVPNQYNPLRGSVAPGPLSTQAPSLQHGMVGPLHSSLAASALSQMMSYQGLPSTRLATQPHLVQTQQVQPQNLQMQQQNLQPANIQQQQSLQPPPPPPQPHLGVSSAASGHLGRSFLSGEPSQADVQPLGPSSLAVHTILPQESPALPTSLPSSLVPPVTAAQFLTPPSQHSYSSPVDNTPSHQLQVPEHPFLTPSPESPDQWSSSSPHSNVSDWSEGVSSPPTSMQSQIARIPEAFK
binder,measurement,setting,value
B1,binding result,[1],no binding
same,binding result,[2],no binding
same,binding result,[3],no binding
B2,"IC50, Notch1 signaling inhibition co-culture reporter assay",[4],190 pM
same,"Maximal Inhibition (%), Notch1 signaling inhibition co-culture reporter assay",[4],87.5%
same,Fold difference from rat 351,[5],1 fold
same,"Neutralization activity (Human RGA), IC50",[6],400 pM
same,"Neutralization activity (murine RGA), IC50",[7],300 pM
same,EC50,[8],100 pM
same,EC50,[9],4430 pM
same,Kd,[10],2330 pM and 2300 pM
same,koff,[10],0.00102 s⁻¹
same,kon,[10],439000 M⁻¹ s⁻¹
same,"Normalized Notch1^ICD level, CCD1076SK fibroblasts on DLL4, 0.001 µg/ml antibody",[11],0.826 relative to untreated
same,"Normalized Notch1^ICD level, CCD1076SK fibroblasts on DLL4, 0.01 µg/ml antibody",[11],0.848 relative to untreated
same,"Normalized Notch1^ICD level, CCD1076SK fibroblasts on DLL4, 0.1 µg/ml antibody",[11],0.554 relative to untreated
same,"Normalized Notch1^ICD level, CCD1076SK fibroblasts on DLL4, 1 µg/ml antibody",[11],0.393 relative to untreated
same,"Normalized Notch1^ICD level, CCD1076SK fibroblasts on DLL4, 10 µg/ml antibody",[11],0.302 relative to untreated
same,EC50,[12],70 pM
B3,EC50,[13],1500 pM
same,EC50,[14],3600 pM
same,"IC50, human Notch1 reporter gene co-culture assay (DLL4-HEK293)",[15],680 pM
same,"IC50, mouse Notch1 reporter gene co-culture assay (DLL4-HEK293)",[16],710 pM
same,"Firefly/Renilla Luminescence, human Notch1 reporter cells + 5 mM EDTA, 0.01 µg/mL antibody",[17],338 Firefly/Renilla ratio
same,"Firefly/Renilla Luminescence, human Notch1 reporter cells + 5 mM EDTA, 0.1 µg/mL antibody",[17],246 Firefly/Renilla ratio
same,"Firefly/Renilla Luminescence, human Notch1 reporter cells + 5 mM EDTA, 1 µg/mL antibody",[17],117 Firefly/Renilla ratio
same,"Firefly/Renilla Luminescence, human Notch1 reporter cells + 5 mM EDTA, 10 µg/mL antibody",[17],54.3 Firefly/Renilla ratio
same,"Firefly/Renilla Luminescence, human Notch1 reporter cells + 5 mM EDTA, 30 µg/mL antibody",[17],46.9 Firefly/Renilla ratio
same,binding result,[18],no binding
